# Test results taken from patent US20240360223A1 (DRAGONFLY THERAPEUTICS, published 2024).
# Where “and” joins values, the source holds several entries; their conditions need not be identical. Identical values can stand only once.
# T1: recombinant human TACI (human, UniProt O14836 2-166, limits assumed)
# T1 sequence (looked up): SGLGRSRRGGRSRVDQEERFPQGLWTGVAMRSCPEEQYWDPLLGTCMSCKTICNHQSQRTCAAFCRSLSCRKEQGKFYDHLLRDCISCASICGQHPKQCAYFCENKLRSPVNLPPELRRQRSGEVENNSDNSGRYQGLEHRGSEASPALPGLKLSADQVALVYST
# T2: cynomolgus NKG2D (recombinant mFc-tagged dimer) (cynomolgus, UniProt P61252 78-216)
# T2 construct: also called cyno NKG2D
# T2 sequence (looked up): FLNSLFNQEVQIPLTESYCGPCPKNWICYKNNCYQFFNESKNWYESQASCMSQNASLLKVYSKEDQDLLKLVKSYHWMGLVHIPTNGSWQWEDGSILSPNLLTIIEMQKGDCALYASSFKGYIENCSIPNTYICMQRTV
# T3: human CD32a H131 (human, UniProt P12318 36-218, limits assumed)
# T3 sequence (looked up): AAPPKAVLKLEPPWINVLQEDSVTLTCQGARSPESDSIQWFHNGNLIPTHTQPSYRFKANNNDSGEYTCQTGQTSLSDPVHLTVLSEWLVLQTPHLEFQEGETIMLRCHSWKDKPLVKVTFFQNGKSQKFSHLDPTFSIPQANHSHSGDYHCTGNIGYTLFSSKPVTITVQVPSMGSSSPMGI
# T4: human CD32a R131 (human, UniProt P12318 36-218, limits assumed)
# T4 construct: also called FcγRIIa R131
# T4 sequence (looked up): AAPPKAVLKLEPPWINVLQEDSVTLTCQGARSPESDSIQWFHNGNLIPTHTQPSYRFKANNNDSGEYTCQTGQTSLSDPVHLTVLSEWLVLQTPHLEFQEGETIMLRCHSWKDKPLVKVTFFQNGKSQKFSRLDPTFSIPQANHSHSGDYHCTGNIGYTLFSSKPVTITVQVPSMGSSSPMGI
# T5: human CD32b (human, UniProt P31994 46-217, limits assumed)
# T5 construct: also called FcγRIIb
# T5 sequence (looked up): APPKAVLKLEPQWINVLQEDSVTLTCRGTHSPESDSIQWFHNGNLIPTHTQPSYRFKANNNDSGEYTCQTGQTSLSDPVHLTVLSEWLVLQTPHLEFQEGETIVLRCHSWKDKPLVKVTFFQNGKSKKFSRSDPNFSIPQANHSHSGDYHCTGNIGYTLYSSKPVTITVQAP
# Legend:
# recombinant human TACI = target: T1, recombinant human TACI; test: SPR, immobilized AB1424 F3', analyte 500 nM TACI
# [1] = target: T2, cynomolgus NKG2D (recombinant …); test: SPR, 1:1 kinetic fit, average
# From the text: NKG2D is a native dimer, therefore recombinant mFc-tagged NKG2D dimer was used for this experiment. Two different fits were utilized to obtain the equilibrium affinity data: steady state affinity fit and kinetic fit.
# cynomolgus FcRn [2] = target: T6, cynomolgus FcRn (cynomolgus, UniProt Q8SPV9 24-297; Q8SPW0 21-119); test: SPR, pH 6.0, steady state, average; pH 6.0; average of four replicates
# T6 construct: also called Cyno FcRn
# T6 sequence (Q8SPV9 24-297 limits assumed, chain 1 of 2): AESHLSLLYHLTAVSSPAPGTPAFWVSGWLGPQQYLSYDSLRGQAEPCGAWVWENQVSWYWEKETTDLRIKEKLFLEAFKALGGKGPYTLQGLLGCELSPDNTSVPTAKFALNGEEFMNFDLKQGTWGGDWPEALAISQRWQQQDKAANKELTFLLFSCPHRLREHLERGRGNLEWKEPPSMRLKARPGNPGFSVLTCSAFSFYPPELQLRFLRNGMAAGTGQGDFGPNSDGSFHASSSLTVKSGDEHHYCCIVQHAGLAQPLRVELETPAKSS
# T6 sequence (Q8SPW0 21-119 limits assumed, chain 2 of 2): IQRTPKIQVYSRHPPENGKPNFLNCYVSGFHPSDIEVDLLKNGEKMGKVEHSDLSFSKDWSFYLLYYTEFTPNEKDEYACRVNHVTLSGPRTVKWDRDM
# [3] = target: T2, cynomolgus NKG2D (recombinant …); test: SPR, average
# From the text: Two different fits were utilized to obtain the equilibrium affinity data: steady state affinity fit and kinetic fit.
# cynomolgus FcRn [4] = target: T6, cynomolgus FcRn; test: SPR, pH 6.0, summary table
# [5] = target: T2, cynomolgus NKG2D (recombinant …); test: SPR
# [6] = target: T7, human BAFF-R expressed on cells (human, UniProt Q96RJ3 1-184); test: flow cytometry, CHO-hBAFF-R cells
# T7 construct: Cell surface BAFF-R, endogenous on B cell lines and primary B cells or overexpressed on isogenic CHO cells; also called hBAFF-R; hBAFF-R-CHO
# human CD16b [7] = target: T8, human CD16b (human, UniProt O75015 17-200, limits assumed); test: SPR, steady state, average
# T8 construct: also called FcγRIIIb
# T8 sequence (O75015 17-200 limits assumed): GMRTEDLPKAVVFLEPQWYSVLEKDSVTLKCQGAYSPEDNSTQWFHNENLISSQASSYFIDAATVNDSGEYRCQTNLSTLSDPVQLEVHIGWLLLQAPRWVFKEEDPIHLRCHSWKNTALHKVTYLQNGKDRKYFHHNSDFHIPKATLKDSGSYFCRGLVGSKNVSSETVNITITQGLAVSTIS
# [8] = target: T7, human BAFF-R expressed on cells; test: cell-based or functional assay
# human CD16a F158 [9] = target: T9, human CD16a F158 (human, UniProt P08637 17-208); test: SPR, steady state, average
# T9 sequence (P08637 17-208 limits assumed): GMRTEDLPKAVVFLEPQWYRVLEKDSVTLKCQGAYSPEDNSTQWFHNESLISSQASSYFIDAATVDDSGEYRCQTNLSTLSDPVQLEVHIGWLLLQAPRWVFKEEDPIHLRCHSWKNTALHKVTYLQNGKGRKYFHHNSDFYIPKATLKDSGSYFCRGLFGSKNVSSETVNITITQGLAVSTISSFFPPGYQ
# cynomolgus CD16 [10] = target: T10, cynomolgus CD16 (cynomolgus, UniProt Q8SPW2 17-208, limits assumed); test: SPR, kinetic fit; first replicate, kinetic fit
# T10 construct: also called Cyno CD16; cynomolgus FcγRIII
# T10 sequence (Q8SPW2 17-208 limits assumed): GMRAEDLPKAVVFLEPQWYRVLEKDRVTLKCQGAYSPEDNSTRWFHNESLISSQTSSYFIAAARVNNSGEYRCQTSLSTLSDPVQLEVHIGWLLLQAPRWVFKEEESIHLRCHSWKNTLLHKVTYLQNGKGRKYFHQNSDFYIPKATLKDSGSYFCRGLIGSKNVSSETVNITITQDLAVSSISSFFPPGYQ
# [11] = target: T7, human BAFF-R expressed on cells; test: KinExA, BAFF-R-CHO cells
# human CD16a V158 [12] = target: T11, human CD16a V158 (human, UniProt P08637 17-208); test: SPR, kinetic fit
# T11 construct: also called hCD16aV; hCD16a V158
# T11 sequence (P08637 17-208 F176V limits assumed): as the sequence (P08637 17-208 limits assumed) above, with F160V counted along it
# [13] = target: T2, cynomolgus NKG2D (recombinant …); test: SPR, average; remark: listed apart in the source
# human CD16a F158 [14] = target: T9, human CD16a F158; test: SPR, summary table
# human CD64 = target: T12, human CD64 (human, UniProt P12314 16-288, limits assumed); test: SPR, summary table
# T12 construct: also called FcγRI
# T12 sequence (P12314 16-288 limits assumed): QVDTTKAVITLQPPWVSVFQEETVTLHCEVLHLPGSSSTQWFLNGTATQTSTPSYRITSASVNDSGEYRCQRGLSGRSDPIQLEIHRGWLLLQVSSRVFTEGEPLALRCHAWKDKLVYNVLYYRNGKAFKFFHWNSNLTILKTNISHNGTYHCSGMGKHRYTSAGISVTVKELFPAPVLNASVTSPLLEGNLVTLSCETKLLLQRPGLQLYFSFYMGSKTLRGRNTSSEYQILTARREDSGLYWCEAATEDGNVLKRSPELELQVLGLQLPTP
# human CD32a H131 = target: T3, human CD32a H131; test: SPR, summary table
# human CD32a R131 = target: T4, human CD32a R131; test: SPR, summary table
# human CD16a V158 [15] = target: T11, human CD16a V158; test: SPR, summary table
# human CD32b = target: T5, human CD32b; test: SPR, summary table
# human CD16b [16] = target: T8, human CD16b; test: SPR, summary table
# cynomolgus CD16 [17] = target: T10, cynomolgus CD16; test: SPR, summary table
# cynomolgus FcRn [18] = target: T6, cynomolgus FcRn; test: SPR, pH 6.0, steady state; pH 6.0; first replicate
binder,measurement,setting,value
"AB1424/AB1612 F3′ TriNKET (bispecific antibody, human IgG1, kappa, Chain S: anti-BAFF-R scFv-CH2-CH3; chain H: anti-NKG2D VH-CH1-CH2-CH3; chain L: anti-NKG2D VL-CL; also called AB1612-002) not shown heavy: EVQLVESGGGLVKPGGSLRLSCAASGFTFSSYSMNWVRQAPGKGLEWVSSISSSSSYIYYADSVKGRFTISRDNAKNSLYLQMNSLRAEDTAVYYCARGAPIGAAAGWFDPWGQGTLVTVSSASTKGPSVFPLAPSSKSTSGGTAALGCLVKDYFPEPVTVSWNSGALTSGVHTFPAVLQSSGLYSLSSVVTVPSSSLGTQTYICNVNHKPSNTKVDKKVEPKSCDKTHTCPPCPAPELLGGPSVFLFPPKPKDTLMISRTPEVTCVVVDVSHEDPEVKFNWYVDGVEVHNAKTKPREEQYNSTYRVVSVLTVLHQDWLNGKEYKCKVSNKALPAPIEKTISKAKGQPREPQVCTLPPSRDELTENQVSLTCLVKGFYPSDIAVEWESNGQPENNYKTTPPVLDSDGSFFLYSWLTVDKSRWQQGNVFSCSVMHEALHNHYTQKSLSLSPG light: DIQMTQSPSSVSASVGDRVTITCRASQGISSWLAWYQQKPGKAPKLLIYAASSLQSGVPSRFSGSGSGTDFTLTISSLQPEDFATYYCQQGVSFPRTFGGGTKVEIKRTVAAPSVFIFPPSDEQLKSGTASVVCLLNNFYPREAKVQWKVDNALQSGNSQESVTEQDSKDSTYSLSSTLTLSKADYEKHKVYACEVTHQGLSSPVTKSFNRGEC",binding result,recombinant human TACI,no binding (tested: 500 nM)
same,Kd,[1],517 nM
same,Kd,cynomolgus FcRn [2],1000 nM
same,koff,[3],0.11 s⁻¹
same,kon,[3],190000 M⁻¹ s⁻¹
same,Kd,cynomolgus FcRn [4],1000 nM
same,koff,[5],0.11 s⁻¹ and 0.1 s⁻¹
same,kon,[5],210000 M⁻¹ s⁻¹ and 200000 M⁻¹ s⁻¹
same,EC50,[6],0.7 nM
same,Max FOB,[6],146 fold over background
same,Kd,human CD16b [7],6900 nM
same,"lysis of BJAB target cells by rested primary human NK cells, EC50",[8],0.06 nM
same,"specific lysis of BAFF-R+ target cells by KHYG-1-CD16V effector cells, EC50",[8],0.05 nM
same,Kd,human CD16a F158 [9],1350 nM
same,Kd,cynomolgus CD16 [10],261 nM
same,Kd,[11],2.55 nM
same,Kd,human CD16a V158 [12],131 nM (2×) and 134 nM and 122 nM
same,koff,[13],0.11 s⁻¹
same,kon,[13],200000 M⁻¹ s⁻¹
same,Kd,human CD16a F158 [14],1350 nM
same,Kd,human CD64,3.2 nM
same,Kd,human CD32a H131,1000 nM
same,Kd,human CD32a R131,1400 nM
same,Kd,human CD16a V158 [15],129 nM
same,Kd,human CD32b,5900 nM
same,Kd,human CD16b [16],6900 nM
same,Kd,cynomolgus CD16 [17],271 nM
same,Kd,cynomolgus FcRn [18],1000 nM
